The target in data set [1] is plasma kallikrein (human).
The data set “SAXS” deals with the molecule itself. Nature of the data set: SAXS.

As usually defined, the stoichiometry N is the number of molecules, sites or subunits per partner or assembly.

As for “recombinant ITIH4 (ITIH4 WT) (from UniProt Q14624 29-930) (natural protein)”, the IC50 of ITIH4 on cleavage of HMWK by plasma kallikrein in Ca2+/Mg2+, SDS-PAGE in data set [1] was 0.09 µM.

B1: recombinant ITIH4 (ITIH4 WT) (natural protein, human, UniProt Q14624 29-930, looked up)
chain: EKNGIDIYSLTVDSRVSSRFAHTVVTSRVVNRANTVQEATFQMELPKKAFITNFSMIIDGMTYPGIIKEKAEAQAQYSAAVAKGKSAGLVKATGRNMEQFQVSVSVAPNAKITFELVYEELLKRRLGVYELLLKVRPQQLVKHLQMDIHIFEPQGISFLETESTFMTNQLVDALTTWQNKTKAHIRFKPTLSQQQKSPEQQETVLDGNLIIRYDVDRAISGGSIQIENGYFVHYFAPEGLTTMPKNVVFVIDKSGSMSGRKIQQTREALIKILDDLSPRDQFNLIVFSTEATQWRPSLVPASAENVNKARSFAAGIQALGGTNINDAMLMAVQLLDSSNQEERLPEGSVSLIILLTDGDPTVGETNPRSIQNNVREAVSGRYSLFCLGFGFDVSYAFLEKLALDNGGLARRIHEDSDSALQLQDFYQEVANPLLTAVTFEYPSNAVEEVTQNNFRLLFKGSEMVVAGKLQDRGPDVLTATVSGKLPTQNITFQTESSVAEQEAEFQSPKYIFHNFMERLWAYLTIQQLLEQTVSASDADQQALRNQALNLSLAYSFVTPLTSMVVTKPDDQEQSQVAEKPMEGESRNRNVHSGSTFFKYYLQGAKIPKPEASFSPRRGWNRQAGAAGSRMNFRPGVLSSRQLGLPGPPDVPDHAAYHPFRRLAILPASAPPATSNPDPAVSRVMNMKIEETTMTTQTPAPIQAPSAILPLPGQSVERLCVDPRHRQGPVNLLSDPEQGVEVTGQYEREKAGFSWIEVTFKNPLVWVHASPEHVVVTRNRRSSAYKWKETLFSVMPGLKMTMDKTGLLLLSDPDKVTIGLLFWDGRGEGLRLLLRDTDRFSSHVGGTLGQFYQEVLWGSPAASDDGRRTLRVQGNDHSATRERRLDYQEGPPGVEISCWSVEL
Consider B1, for which the “stoichiometry N” value in the data set “SAXS” turned out to be 2.

These data come from paper PMC7793589 (Science Advances, 2021).
